# In patent US20240092867A1 (UNIVERSITY OF CHICAGO, published 2024):
# B1: vWF A1 HBD (24 residues, C-terminal Cys) (peptide)
# peptide: YIGLKDRKRPSELRRIASQVKYAC
# notes: also the peptide coupled into the PEG matrix; also called vWF HBD-Cys; vWF A1 HBD peptide
# B2: FabCol-p(FgHBD) recombinant fusion protein (Fab)
# light: EIVLTQSPGTLSLSPGERATLSCRASQSVSSSYLAWYQQKPGQAPRLLIYGASSRATGIPDRFSGSGSGTDFTLTISRLEPEDFAVYYCQQAIGFPQTFGQGTKVEIKRTVAAPSVFIFPPSDEQLKSGTASVVCLLNNFYPREAKVQWKVDNALQSGNSQESVTEQDSKDSTYSLSSTLTLSKADYEKHKVYACEVTHQGLSSPVTKSFNRGECGAGGGSGGGHRPLDKKREEAPSLRPAPPPISGGGYRARPAKAAATQKKVERKAPDAGGGSGGGSGGGHRPLDKKREEAPSLRPAPPPISGGGYRARPAKAAATQKKVERKAPDAGGGSGGGSGGGHRPLDKKREEAPSLRPAPPPISGGGYRARPAKAAATQKKVERKAPDAGGGT
# heavy: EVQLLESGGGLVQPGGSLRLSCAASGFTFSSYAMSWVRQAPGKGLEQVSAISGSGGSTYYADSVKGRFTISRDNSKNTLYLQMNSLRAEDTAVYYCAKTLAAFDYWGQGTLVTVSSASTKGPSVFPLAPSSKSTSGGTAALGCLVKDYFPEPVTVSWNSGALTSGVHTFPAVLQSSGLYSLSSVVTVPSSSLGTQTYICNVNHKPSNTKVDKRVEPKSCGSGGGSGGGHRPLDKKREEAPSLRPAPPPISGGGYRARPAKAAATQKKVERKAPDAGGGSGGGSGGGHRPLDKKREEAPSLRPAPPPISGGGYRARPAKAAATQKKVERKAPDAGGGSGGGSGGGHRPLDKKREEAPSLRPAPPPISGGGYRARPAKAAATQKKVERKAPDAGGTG
# notes: Three repeats of FgHBD at the C-termini of both Fab chains
# B3: FabCol-FgHBD conjugates (Fab)
# light: EIVLTQSPGTLSLSPGERATLSCRASQSVSSSYLAWYQQKPGQAPRLLIYGASSRATGIPDRFSGSGSGTDFTLTISRLEPEDFAVYYCQQAIGFPQTFGQGTKVEIKRTVAAPSVFIFPPSDEQLKSGTASVVCLLNNFYPREAKVQWKVDNALQSGNSQESVTEQDSKDSTYSLSSTLTLSKADYEKHKVYACEVTHQGLSSPVTKSFNRGEC
# heavy: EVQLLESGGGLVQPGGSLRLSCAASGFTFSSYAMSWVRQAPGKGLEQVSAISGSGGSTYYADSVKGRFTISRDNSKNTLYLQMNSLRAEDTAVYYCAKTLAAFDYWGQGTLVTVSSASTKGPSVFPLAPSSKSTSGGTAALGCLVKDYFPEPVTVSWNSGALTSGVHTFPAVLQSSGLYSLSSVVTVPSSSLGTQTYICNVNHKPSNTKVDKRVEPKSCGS
# peptide: GCGGSLRPAPPPISGGGYRARPAKAAATQKKVERKAPDA
# modifications: chemically conjugated to FabCol with sulfo-SMCC crosslinker; multiple copies per FabCol (shift of about 35 kDa)
# notes: Chemical conjugate
# What was measured:
# [1] = target: T1, vascular endothelial growth factor (VEGF)-A121 (human, UniProt P15692-9 27-147); test: ELISA; peptides and vWF forms coated at 50 nM, VEGF-A in solution, detected with anti-VEGF-A antibody [panel D]
# T1 construct: mature; Purchased in mature form, not glycosylated
# T1 sequence (looked up): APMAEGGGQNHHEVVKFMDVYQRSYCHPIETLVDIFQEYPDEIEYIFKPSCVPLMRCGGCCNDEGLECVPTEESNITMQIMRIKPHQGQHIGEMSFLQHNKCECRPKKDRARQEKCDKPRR
# Experimental: (A) Diagram of exon sequence of VEGF-A showing inclusion (+) or exclusion (−) of heparin binding domain exons for the different VEGF-A isoforms. […] Bound VEGF-A was detected using a specific antibody for VEGF-A (n=4, mean±SD). Statistical comparisons were done using ANOVA with Tukey's test compared with BSA control. **p<0.01.
# ELISA was performed as previously reported1. […] After blocking with 2% BSA solution containing PBS-T, 1 μg/mL of recombinant human VEGF-A121 (PeproTech), recombinant human VEGF-A145 (R & D Systems), or recombinant human VEGF-A165 (PeproTech) was added. Bound VEGF-A was detected with 1 μg/mL of mouse anti-human VEGF-A antibody (clone: 26503, R & D systems). After 60 min of incubation, horseradish peroxidase (HRP) conjugated goat anti-mouse antibody (1:2000 dilution, Dako) was added and incubated for another 60 min. Color development and the absorbance measurement were done as described above.
# [2] = target: T2, platelet-derived growth factor (PDGF)-BB (human, UniProt P01127 82-190); test: cell-based or functional assay
# [3] = target: T3, vascular endothelial growth factor (VEGF)-A165 (human, UniProt P15692-4 27-191); test: cell-based or functional assay
# [4] = target: T4, recombinant human BMP-2 (human, UniProt P12643 283-396); test: ELISA, rhBMP-2 coated 50 nM, binder 50 nM
# T4 construct: also called rhBMP-2
# Experimental: ELISA plates (NUNC MaxiSorp) were coated with 50 nM of recombinant human BMP-2 (CHO produced, R&D Systems, Minneapolis MN, USA) overnight at room temperature.
# [5] = target: T5, bovine type I collagen (bovine, UniProt P02453 178-1191; P02465 89-1102); test: ELISA, collagen I coated, 0.01-30 nM binder
# T5 construct: PureCol, Advanced BioMatrix; coated on the plate; also called collagen I; PureCol
# Experimental: ELISA plates (NUNC MaxiSorp, ThermoFisher Scientific) were coated overnight with 10 μg/mL of bovine type I collagen (PureCol, Advanced BioMatrix, San Diego CA, USA) at room temperature. The plate was further blocked using 2% bovine serum albumine (BSA) for 2 h at room temperature. […] The plate was washed thrice in PBST, and an horseradish peroxidase-conjugated anti-human Fab antibody (Jackson ImmunoResearch,) was used to detect bound FabCol variants. […] Absorbance at 450 nm was read using […], and corrected using the absorbance at 570 nm. Curve fits and dissociation constant KD were computed using Prism (GraphPad Software Inc., USA).
# [6] = target: T3, vascular endothelial growth factor …; test: ELISA, peptide coated, GF 1 µg/mL
# Experimental: (§1) (A) The location of laminin-derived peptides in the LG domain of laminin α3, α4, and α5 chains. (B-F) Affinity of heparin and GFs against chemically synthesized peptides derived from the LG domain of laminin α3, α4, and α5 chains. ELISA plates were coated with 10 μg/mL laminin peptide and further incubated with (B) biotinylated heparin, (C) VEGF-A165 and VEGF-A121, (D) PlGF-2 and PlGF-1, (E) PDGF-BB, or (F) FGF-2. Concentrations were 1 μg/mL for GFs and 10 μg/mL for heparin. Bound heparin was detected with streptavidin, and bound GFs with a specific antibody for each GF (n=4, mean±SEM). Statistical analyses were done using the Mann-Whitney U test by comparing the signals obtained from the laminin peptide- and the BSA-coated wells. *p<0.05, **p<0.01.
# (§2) ELISA tests were performed as described above. […] 1 μg/mL of BSA served as non-binding protein control. After blocking with 2% BSA PBS-0.05% Tween 20 (PBS-T) solution, 1 μg/mL of the recombinant human proteins (VEGF-A121, VEGF-A165, PlGF-1, PlGF-2, PDGF-BB or FGF-2) or 10 μg/mL of biotinylated heparin (Sigma-Aldrich) were added. Bound GF was detected with biotinylated antibodies for human VEGF, PlGF, PDGF-BB, or FGF-2 (R&D Systems). The antibodies were detected by streptavidin-HRP (R&D Systems).
# [7] = target: T6, fibroblast growth factor (FGF)-2 (human, UniProt P09038 143-288); test: ELISA, peptide coated, GF 1 µg/mL
# T6 construct: mature; Purchased in mature form
# Experimental: as §1, §2
# [8] = target: T1, vascular endothelial growth factor …; test: ELISA, peptide coated
# Experimental: as §1, §2
# [9] = target: T7, placental growth factor (PlGF)-1 (human, UniProt P49763-2 19-149); test: ELISA, peptide coated
# T7 construct: mature; Purchased in mature form
# T7 sequence (looked up): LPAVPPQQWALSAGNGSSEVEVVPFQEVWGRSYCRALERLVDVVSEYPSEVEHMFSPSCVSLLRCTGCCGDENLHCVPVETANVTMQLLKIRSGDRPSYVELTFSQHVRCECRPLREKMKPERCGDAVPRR
# Experimental: as §1, §2
# [10] = target: T8, placental growth factor (PlGF)-2 (human, UniProt P49763-3 19-170); test: ELISA; peptide coated (10 µg/mL, legend paragraph 53), 1 µg/mL PlGF-2 in solution, BSA-coated wells as control [panel D]
# T8 construct: mature; Purchased in mature form
# T8 sequence (looked up): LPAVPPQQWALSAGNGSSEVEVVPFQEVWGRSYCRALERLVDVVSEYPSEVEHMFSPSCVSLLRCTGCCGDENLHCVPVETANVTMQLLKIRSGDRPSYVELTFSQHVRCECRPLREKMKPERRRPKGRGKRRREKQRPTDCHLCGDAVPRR
# Experimental: as §1, §2
# [11] = target: T2, platelet-derived growth factor (PDGF)-BB; test: ELISA; peptide coated (10 µg/mL, legend paragraph 53), 1 µg/mL PDGF-BB in solution, BSA-coated wells as control [panel E]
# Experimental: as §1, §2
# [12] = target: T2, platelet-derived growth factor (PDGF)-BB; test: ELISA, peptide coated, GF 1 µg/mL
# Experimental: as §1, §2
# [13] = target: T8, placental growth factor (PlGF)-2; test: ELISA, peptide coated, GF 1 µg/mL
# Experimental: as §1, §2
# [14] = target: T9, recombinant human syndecan-2 (human, UniProt P34741 19-144, limits assumed); test: ELISA, peptide coated, syndecan 1 µg/mL, anti-His detection
# T9 construct: Histidine tag of unstated position and length
# Experimental: (§3) ELISA tests were performed as described above. In brief, ELISA plates were coated with 1 μg/mL laminin peptide (sequences are described in Table 1, chemically synthesized by Genscript) in PBS for 2 hrs at 37° C. 1 μg/mL of BSA served as non-binding protein control. After blocking with 2% BSA PBS-T solution, 1 μg/mL of the recombinant human syndecan-1, syndecan-2, syndecan-3, syndecan-4 (all syndecan proteins are histidine-tagged; SinoBiological) were added. Bound GF was detected with anti-histidine tag antibody (1:1000 dilution, BioLegend).
# [15] = target: T10, recombinant human syndecan-1 (human, UniProt P18827 23-254, limits assumed); test: as above
# T10 construct: Histidine tag of unstated position and length
# T10 sequence (looked up): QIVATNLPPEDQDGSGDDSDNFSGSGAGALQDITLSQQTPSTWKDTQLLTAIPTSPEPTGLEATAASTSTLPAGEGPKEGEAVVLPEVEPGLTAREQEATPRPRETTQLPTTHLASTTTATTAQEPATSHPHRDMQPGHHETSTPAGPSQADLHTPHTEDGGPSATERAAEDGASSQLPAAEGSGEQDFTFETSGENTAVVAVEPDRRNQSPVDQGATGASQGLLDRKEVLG
# Experimental: as §3
# [16] = target: T11, recombinant human syndecan-4 (human, UniProt P31431 19-145, limits assumed); test: as above
# T11 construct: Histidine tag of unstated position and length
# T11 sequence (looked up): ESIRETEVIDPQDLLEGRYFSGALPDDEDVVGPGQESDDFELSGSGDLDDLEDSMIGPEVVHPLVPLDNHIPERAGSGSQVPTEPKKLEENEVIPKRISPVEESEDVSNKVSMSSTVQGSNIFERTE
# Experimental: as §3
# [17] = target: T6, fibroblast growth factor (FGF)-2; test: ELISA; peptide coated (10 µg/mL, legend paragraph 53), 1 µg/mL FGF-2 in solution, BSA-coated wells as control [panel F]
# Experimental: as §1, §2
# [18] = target: T2, platelet-derived growth factor (PDGF)-BB; test: ELISA; peptide coated (10 µg/mL, legend paragraph 53), GF in solution, BSA-coated wells as control [panel E]
# Experimental: as §1, §2
# T6 sequence (P09038 143-288): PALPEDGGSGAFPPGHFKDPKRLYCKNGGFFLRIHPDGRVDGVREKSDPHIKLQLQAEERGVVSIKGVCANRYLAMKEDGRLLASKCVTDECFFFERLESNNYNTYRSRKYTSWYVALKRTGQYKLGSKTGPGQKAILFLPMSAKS
# T9 sequence (P34741 19-144 limits assumed): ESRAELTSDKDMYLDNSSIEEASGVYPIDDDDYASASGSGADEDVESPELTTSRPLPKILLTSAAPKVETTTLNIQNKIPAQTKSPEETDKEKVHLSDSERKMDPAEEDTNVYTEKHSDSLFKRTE
# T2 sequence (P01127 82-190): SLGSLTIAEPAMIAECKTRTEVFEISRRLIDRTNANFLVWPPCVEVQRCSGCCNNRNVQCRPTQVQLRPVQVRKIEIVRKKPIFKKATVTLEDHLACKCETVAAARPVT
# T5 sequence (P02453 178-1191, chain 1 of 2): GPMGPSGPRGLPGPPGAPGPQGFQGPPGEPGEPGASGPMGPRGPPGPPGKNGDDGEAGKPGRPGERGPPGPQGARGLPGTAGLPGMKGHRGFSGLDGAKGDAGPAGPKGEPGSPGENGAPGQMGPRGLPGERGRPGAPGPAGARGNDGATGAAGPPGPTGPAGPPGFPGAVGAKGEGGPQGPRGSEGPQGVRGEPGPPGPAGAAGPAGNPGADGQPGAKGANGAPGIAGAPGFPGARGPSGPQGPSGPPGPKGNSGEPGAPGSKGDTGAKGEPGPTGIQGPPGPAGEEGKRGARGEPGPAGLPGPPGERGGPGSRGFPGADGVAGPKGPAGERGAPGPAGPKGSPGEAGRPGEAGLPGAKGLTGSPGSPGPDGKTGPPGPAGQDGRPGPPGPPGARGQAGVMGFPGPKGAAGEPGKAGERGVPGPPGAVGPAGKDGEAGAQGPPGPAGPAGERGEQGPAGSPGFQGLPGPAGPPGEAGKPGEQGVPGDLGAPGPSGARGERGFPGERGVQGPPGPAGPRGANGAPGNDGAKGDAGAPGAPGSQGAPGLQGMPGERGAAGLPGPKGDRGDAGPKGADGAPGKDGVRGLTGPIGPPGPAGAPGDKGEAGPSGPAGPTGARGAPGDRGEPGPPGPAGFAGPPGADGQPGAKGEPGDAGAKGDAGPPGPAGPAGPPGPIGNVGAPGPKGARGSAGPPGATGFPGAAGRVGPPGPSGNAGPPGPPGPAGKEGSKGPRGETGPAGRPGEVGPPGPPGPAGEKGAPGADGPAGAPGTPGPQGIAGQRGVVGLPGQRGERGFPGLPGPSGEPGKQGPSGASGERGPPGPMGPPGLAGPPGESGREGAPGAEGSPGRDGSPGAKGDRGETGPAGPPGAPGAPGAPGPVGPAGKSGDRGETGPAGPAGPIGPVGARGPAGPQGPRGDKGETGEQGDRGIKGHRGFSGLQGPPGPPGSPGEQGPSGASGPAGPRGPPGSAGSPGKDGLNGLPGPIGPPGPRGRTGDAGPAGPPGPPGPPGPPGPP
# T5 sequence (P02465 89-1102, chain 2 of 2): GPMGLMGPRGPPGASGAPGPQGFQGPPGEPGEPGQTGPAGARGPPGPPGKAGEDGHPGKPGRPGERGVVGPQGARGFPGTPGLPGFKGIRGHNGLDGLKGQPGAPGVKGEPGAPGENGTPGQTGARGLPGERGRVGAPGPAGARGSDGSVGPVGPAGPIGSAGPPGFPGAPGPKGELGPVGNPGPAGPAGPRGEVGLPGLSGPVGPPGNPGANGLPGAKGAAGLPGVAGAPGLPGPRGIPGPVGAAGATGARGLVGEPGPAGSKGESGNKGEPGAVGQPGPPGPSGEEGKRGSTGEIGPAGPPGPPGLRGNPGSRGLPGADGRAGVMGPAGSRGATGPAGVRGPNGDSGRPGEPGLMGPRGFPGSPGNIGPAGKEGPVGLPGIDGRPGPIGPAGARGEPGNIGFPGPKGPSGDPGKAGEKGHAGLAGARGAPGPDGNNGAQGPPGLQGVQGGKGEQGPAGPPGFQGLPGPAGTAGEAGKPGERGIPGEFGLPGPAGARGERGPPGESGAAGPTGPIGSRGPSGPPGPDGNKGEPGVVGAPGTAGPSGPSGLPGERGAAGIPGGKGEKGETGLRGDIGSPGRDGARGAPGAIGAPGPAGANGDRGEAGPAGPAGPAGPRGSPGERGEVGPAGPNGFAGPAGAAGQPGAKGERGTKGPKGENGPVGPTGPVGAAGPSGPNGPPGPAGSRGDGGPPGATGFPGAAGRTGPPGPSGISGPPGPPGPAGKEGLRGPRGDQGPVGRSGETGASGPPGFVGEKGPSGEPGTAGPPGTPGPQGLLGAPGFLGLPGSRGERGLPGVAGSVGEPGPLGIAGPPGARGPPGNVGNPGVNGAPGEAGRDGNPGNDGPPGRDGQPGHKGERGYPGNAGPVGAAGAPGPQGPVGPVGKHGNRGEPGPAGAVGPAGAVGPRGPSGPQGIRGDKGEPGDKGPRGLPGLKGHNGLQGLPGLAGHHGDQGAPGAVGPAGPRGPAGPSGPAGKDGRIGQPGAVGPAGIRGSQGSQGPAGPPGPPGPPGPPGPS
# T4 sequence (P12643 283-396 limits assumed): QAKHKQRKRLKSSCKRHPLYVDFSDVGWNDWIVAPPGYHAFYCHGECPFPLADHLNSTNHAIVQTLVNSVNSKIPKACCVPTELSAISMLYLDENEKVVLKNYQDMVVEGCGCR
Binder,binding result [6],binding result [7],binding result [8],binding result [9],binding result [13],binding result [14],binding result [15],binding result [16],other results
B1,,,,,,,,,binding result [1]: no binding (tested: 1 µg/mL VEGF-A121 (single concentration))
NQEQVSPLRLVFALGTDGKKLRIKSKEKCNDGK [α2PI1-8-α3 3043-3067],,,,,,,,,cumulative release of GF from peptide-functionalized fibrin matrix after 5 days [2]: 45%; cumulative release of GF from peptide-functionalized fibrin matrix after 5 days [3]: 25%
B2,,,,,,,,,binding result [4]: binds; Kd [5]: ~1.7 nM
PPFLMLLKGSTRFNKTKTFR (Chemically synthesized (Genscript)) [laminin α3 2932-2951 peptide (Linker)],binds,binds,no binding (tested: 1 µg/mL),no binding (tested: 1 µg/mL),,,,,binding result [10]: binds; binding result [11]: binds
RQRSRPGRWHKVSVRWEKNR (Chemically synthesized (Genscript)) [laminin α5 3417-3436 peptide (LG4)],binds,binds,no binding (tested: 1 µg/mL),no binding (tested: 1 µg/mL),binds,binds,binds,binds,binding result [12]: binds
TPGLGPRGLQATARKASRRSRQPARHPACML (Chemically synthesized (Genscript)) [laminin α5 3300-3330 peptide (Linker)],binds,,no binding (tested: 1 µg/mL),no binding (tested: 1 µg/mL),binds,binds,binds,binds,binding result [17]: binds; binding result [18]: no binding (tested: 1 µg/mL PDGF-BB (single concentration))
NQEQVSPLRQRSRPGRWHKVSVRWEKNR [α2PI1-8-α5 3417-3436],,,,,,,,,cumulative release of GF from peptide-functionalized fibrin matrix after 5 days [2]: 47%; cumulative release of GF from peptide-functionalized fibrin matrix after 5 days [3]: 31%
B3,,,,,,,,,Kd [5]: ~2.8 nM
PLFLLHKKGKNLSKPKASQNKKGGKSK (Chemically synthesized (Genscript)) [laminin α4 1408-1434 peptide (Linker)],binds,binds,no binding (tested: 1 µg/mL),no binding (tested: 1 µg/mL),binds,binds,binds,binds,binding result [12]: binds
